Experimental data as given in patent US20220323386A1 (UNIVERSITY OF SOUTHERN CALIFORNIA, published 2022).

Target: neurogenic locus notch homolog protein 1 (NOTCH1) (UniProt P46531 19-2555, limits assumed)
Assay: large-scale immunoaffinity purification and LC-MS analysis

neurogenic locus notch homolog protein 1 (NOTCH1), sequence (P46531 19-2555 limits assumed): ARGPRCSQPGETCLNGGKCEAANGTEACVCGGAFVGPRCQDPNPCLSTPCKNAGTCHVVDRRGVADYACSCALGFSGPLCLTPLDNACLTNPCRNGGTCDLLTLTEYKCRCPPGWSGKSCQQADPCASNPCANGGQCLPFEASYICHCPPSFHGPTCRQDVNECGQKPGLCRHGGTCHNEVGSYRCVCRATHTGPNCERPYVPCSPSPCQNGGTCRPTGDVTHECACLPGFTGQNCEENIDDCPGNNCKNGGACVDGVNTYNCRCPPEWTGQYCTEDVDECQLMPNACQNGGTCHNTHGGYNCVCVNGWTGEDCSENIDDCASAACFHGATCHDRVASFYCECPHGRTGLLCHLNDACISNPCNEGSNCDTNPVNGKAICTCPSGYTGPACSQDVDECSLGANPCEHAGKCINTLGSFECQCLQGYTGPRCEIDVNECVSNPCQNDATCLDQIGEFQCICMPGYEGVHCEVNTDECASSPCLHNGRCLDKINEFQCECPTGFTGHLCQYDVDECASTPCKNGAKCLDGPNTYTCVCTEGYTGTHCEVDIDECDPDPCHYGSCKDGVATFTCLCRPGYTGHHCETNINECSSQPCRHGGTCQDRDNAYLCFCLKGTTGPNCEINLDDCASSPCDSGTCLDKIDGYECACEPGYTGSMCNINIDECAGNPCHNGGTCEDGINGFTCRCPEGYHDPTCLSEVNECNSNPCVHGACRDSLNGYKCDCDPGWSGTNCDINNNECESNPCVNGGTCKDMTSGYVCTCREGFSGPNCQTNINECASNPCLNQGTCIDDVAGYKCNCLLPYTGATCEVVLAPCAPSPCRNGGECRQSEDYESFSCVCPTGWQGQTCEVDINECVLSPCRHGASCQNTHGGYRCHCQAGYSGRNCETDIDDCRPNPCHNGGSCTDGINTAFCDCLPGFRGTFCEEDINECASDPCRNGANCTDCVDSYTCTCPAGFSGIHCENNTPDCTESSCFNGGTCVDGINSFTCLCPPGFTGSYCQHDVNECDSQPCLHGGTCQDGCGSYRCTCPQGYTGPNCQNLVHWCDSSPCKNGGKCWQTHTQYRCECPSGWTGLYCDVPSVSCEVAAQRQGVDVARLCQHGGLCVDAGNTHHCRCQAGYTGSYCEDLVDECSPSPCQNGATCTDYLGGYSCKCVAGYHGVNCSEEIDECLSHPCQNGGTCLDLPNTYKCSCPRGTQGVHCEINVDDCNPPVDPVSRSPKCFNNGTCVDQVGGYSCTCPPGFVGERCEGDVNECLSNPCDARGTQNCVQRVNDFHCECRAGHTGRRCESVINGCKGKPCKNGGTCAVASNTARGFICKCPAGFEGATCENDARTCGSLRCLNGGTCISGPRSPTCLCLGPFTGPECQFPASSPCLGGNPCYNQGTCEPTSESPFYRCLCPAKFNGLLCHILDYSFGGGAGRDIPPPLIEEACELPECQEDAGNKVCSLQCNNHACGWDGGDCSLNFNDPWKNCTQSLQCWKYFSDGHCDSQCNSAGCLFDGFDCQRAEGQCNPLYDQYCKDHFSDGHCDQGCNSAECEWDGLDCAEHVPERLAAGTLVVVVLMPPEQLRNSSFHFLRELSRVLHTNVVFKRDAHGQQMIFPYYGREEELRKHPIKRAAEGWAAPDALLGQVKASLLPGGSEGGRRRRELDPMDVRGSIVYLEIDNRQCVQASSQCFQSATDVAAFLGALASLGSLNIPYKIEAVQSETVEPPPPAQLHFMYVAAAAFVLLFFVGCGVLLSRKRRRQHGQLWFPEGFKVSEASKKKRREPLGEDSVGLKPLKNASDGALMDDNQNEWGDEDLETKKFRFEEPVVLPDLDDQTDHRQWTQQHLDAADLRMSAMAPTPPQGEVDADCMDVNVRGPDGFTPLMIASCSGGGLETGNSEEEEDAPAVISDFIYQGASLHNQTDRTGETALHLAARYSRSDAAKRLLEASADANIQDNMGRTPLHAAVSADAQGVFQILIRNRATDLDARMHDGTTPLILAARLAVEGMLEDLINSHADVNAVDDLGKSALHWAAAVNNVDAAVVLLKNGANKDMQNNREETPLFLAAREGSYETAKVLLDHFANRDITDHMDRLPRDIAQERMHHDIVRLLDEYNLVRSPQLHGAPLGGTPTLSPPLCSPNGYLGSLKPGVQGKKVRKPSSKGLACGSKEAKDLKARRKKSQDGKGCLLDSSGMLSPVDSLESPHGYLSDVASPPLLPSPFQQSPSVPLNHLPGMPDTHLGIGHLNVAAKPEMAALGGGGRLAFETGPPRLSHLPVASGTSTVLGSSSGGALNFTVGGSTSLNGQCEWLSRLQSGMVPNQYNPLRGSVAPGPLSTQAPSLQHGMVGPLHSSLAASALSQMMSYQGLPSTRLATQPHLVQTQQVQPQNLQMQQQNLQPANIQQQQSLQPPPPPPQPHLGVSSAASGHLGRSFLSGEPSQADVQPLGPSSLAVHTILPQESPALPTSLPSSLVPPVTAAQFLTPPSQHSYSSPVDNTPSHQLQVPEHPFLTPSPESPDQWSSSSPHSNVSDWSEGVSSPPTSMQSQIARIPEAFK

binding result: binds
B1: Tre2-Bub2-Cdc16 domain family member 15 (TBC1D15) (other, UniProt Q8TC07 1-691, looked up)
chain: MAAAGVVSGKIIYEQEGVYIHSSCGKTNDQDGLISGILRVLEKDAEVIVDWRPLDDALDSSSILYARKDSSSVVEWTQAPKERGHRGSEHLNSYEAEWDMVNTVSFKRKPHTNGDAPSHRNGKSKWSFLFSLTDLKSIKQNKEGMGWSYLVFCLKDDVVLPALHFHQGDSKLLIESLEKYVVLCESPQDKRTLLVNCQNKSLSQSFENLLDEPAYGLIQAGLLDRRKLLWAIHHWKKIKKDPYTATMIGFSKVTNYIFDSLRGSDPSTHQRPPSEMADFLSDAIPGLKINQQEEPGFEVITRIDLGERPVVQRREPVSLEEWTKNIDSEGRILNVDNMKQMIFRGGLSHALRKQAWKFLLGYFPWDSTKEERTQLQKQKTDEYFRMKLQWKSISQEQEKRNSRLRDYRSLIEKDVNRTDRTNKFYEGQDNPGLILLHDILMTYCMYDFDLGYVQGMSDLLSPLLYVMENEVDAFWCFASYMDQMHQNFEEQMQGMKTQLIQLSTLLRLLDSGFCSYLESQDSGYLYFCFRWLLIRFKREFSFLDILRLWEVMWTELPCTNFHLLLCCAILESEKQQIMEKHYGFNEILKHINELSMKIDVEDILCKAEAISLQMVKCKELPQAVCEILGLQGSEVTTPDSDVGEDENVVMTPCPTSAFQSNALPTLSASGARNDSPTQIPVSSDVCRLTPA
notes: TBC1D15 as present in cell lysates (co-IP); also called TBC1 domain family member 15
